# T1: mouse ECD-DDR1-Fc (mouse; human, UniProt Q03146 22-414)
# T1 construct: also called mouse DDR1-ECD; wild-type mouse DDR1-ECD; not shown: human IgG1 Fc of the vector pFuse-hIgG1-Fc1 (Invivogen)
# T1 sequence: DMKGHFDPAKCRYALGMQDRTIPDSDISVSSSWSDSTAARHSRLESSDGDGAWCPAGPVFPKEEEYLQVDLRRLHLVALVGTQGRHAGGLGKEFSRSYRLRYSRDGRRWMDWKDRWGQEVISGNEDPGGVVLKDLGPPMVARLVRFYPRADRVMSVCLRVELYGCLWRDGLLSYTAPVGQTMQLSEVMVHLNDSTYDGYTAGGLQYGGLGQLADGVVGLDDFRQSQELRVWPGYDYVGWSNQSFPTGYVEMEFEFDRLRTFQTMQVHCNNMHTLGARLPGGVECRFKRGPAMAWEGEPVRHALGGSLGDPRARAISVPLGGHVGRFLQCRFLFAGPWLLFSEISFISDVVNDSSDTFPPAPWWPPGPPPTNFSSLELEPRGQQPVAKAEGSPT
# T2: human DDR2 stably expressed on HEK293 cells (human, UniProt Q16832 22-855)
# T2 construct: whole, on cells; also called hDDR2
# T2 sequence (looked up): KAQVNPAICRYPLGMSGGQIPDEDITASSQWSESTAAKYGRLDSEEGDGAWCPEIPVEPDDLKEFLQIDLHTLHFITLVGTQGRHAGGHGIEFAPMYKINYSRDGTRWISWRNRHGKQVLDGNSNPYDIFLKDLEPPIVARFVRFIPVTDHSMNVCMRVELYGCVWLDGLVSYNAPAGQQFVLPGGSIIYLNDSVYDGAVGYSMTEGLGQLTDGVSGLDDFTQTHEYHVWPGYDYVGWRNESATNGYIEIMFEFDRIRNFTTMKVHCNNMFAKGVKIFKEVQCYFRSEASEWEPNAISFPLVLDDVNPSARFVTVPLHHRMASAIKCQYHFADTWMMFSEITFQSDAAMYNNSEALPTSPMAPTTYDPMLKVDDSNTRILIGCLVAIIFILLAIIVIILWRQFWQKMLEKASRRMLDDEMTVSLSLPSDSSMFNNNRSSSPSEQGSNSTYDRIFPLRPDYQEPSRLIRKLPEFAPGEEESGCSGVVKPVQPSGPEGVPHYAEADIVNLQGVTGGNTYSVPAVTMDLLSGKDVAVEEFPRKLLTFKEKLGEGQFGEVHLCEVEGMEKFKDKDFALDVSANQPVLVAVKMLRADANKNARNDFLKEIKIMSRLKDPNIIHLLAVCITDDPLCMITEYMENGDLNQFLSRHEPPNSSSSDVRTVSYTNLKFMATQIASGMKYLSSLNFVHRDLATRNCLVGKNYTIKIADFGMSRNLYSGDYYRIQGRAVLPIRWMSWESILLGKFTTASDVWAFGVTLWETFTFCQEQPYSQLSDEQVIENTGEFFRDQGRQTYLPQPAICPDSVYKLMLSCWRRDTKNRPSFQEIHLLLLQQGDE
# B1: AB2019 (antibody, V domains shown)
# VH: QVQLKQSGPGLVQPSQSLSITCTVSGFSFTGYGIHWVRQSPGKGLEWLGVIWSGGITDYNAAFISRLSISMDSSKGQVFFKMNSLQANDTAIYYCARRSTTVVADYAMDYWGQGTSVTVSS
# VL: SIVMTQTPKFLLVSAGDRVTITCKASQSVSNDVAWYQQKPGQSPKLLIYYASNRYTGVPDRFTGSGYGTDFTFTINTVQAEDLAVYFCQQDYTSPLTFGAGTKLELKR
# notes: mouse hybridoma mAb
# B2: AB2032 (antibody, V domains shown)
# VH: B1 VH
# VL: B1 VL
# notes: mouse hybridoma mAb
# B3: AB2040 (antibody, V domains shown)
# VH: EVMLVESGGGLVKPGGSLKLSCAASGFTFSNYAMSWVRQTPEKRLEWVAKTSSGDTYTYYPDSVKGRFTISRDNAKNTLYLQMTSLRSEDTAIYYCARQDYYGITPWFFDVWGAGTTVTVSS
# VL: ENVLTQSPAIMSASPGEKVTMTCRASSSVSSIYLHWYQQKSGASPKLWIYSTSNLASGVPARFSGSGSGTSYSLTITSVEAEDAATYYCQQYSGYPLITFGAGTKLELKR
# notes: mouse hybridoma mAb
# B4: AB2073 (antibody, V domains shown)
# VH: B3 VH
# VL: B3 VL
# notes: mouse hybridoma mAb
# B5: AB2054 (antibody, V domains shown)
# VH: B3 VH
# VL: B3 VL
# notes: mouse hybridoma mAb
# B6: AB2003 (antibody, V domains shown)
# VH: DVHLQESGPDLVKPSQSLSLTCTVTDYSITSGYGWHWIRQFPGNKLEWMGYIHYGGSTKYNSSLKSRISITRDTSKNQFFLQLKSVTTDDTGTYYCATSGNYGFAYWGQGTLVTVSA
# VL: DIVLTQSPTSLAVSLGQRATMSCRASESVDDYGTSFMHWYQQKPGQPPKLLIYRASNLESGIPARFSGSGSRADFTLSINPVEPDDVATYYCQQSNEDPFTFGSGTKLEIKR
# notes: mouse hybridoma mAb
# Target: DDR1 endogenously expressed on human cancer cell lines (T47D, HCT-116, A431) (human) (UniProt Q08345)
# Assay: cell-based or functional assay
"EC50, DDR1 phospho-specific ELISA (T47D) [nM]","Maximal inhibition, DDR1 phospho-specific ELISA (T47D) [%]",NPI of cluster formation at 66 nM (A431 cells) [%],"EC50, cluster formation assay (A431 cells) [nM]",Binder
0.66,100,113,–,B1
0.64,100,103,6.89,B2
0.34,–,3.6,–,B3
0.45,–,-0.2,–,B4
0.36,–,3.6,–,B5
0.42,100,128,2.38,B6

# Target: DDR1 endogenously expressed on human cancer cell lines (T47D, HCT-116, A431) (human) (UniProt Q08345)
# Assay: flow cytometry, T47D cells
row,MFI [MFI],Binder
1,4950,B1
2,6820,B2
3,2810,B3
4,6050,B4
5,5930,B5
6,6100,B6

# Target: DDR1 endogenously expressed on human cancer cell lines (T47D, HCT-116, A431) (human) (UniProt Q08345)
# Assay: flow cytometry, HCT116 cells
row,MFI [MFI],Binder
1,1490,B1
2,1900,B2
3,2210,B3
4,1690,B4
5,1530,B5
6,1410,B6

# Target: human DDR1 (isoform B) stably expressed on HEK293 cells (human) (UniProt Q08345)
# Assay: flow cytometry, HEK293/hDDR1
# Sequence of human DDR1 (isoform B) stably expressed on HEK293 cells (human) (Q08345 19-913): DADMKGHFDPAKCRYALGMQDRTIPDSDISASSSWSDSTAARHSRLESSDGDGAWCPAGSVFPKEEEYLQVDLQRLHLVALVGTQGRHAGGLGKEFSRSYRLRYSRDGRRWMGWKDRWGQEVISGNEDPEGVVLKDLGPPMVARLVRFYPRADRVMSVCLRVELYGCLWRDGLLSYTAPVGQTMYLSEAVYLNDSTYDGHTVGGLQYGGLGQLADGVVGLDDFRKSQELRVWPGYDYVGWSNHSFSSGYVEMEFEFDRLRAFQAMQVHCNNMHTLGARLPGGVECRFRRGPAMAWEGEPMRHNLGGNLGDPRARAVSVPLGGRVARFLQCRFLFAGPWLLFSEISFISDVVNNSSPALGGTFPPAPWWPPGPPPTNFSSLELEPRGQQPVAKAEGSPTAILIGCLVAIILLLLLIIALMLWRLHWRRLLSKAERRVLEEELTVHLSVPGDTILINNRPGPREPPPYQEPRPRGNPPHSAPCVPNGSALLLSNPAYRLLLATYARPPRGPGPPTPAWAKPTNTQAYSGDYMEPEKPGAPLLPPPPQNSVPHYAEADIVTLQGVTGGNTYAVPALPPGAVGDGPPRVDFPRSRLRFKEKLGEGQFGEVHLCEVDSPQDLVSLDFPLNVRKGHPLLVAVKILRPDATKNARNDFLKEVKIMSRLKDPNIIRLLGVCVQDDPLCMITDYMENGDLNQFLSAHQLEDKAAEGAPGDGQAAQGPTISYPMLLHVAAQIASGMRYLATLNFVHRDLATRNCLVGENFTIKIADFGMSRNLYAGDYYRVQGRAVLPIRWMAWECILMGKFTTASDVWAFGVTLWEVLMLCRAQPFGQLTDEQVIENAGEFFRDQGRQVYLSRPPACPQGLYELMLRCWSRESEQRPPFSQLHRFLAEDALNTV
row,MFI [MFI],Binder
1,12600,B1
2,13700,B2
3,13700,B3
4,16200,B4
5,15500,B5
6,15000,B6

# Target: T1, mouse ECD-DDR1-Fc
# Assay: ELISA, coated antigen
# Method: (§1) In this study, ELISA was used to determine the affinity of murine anti-DDR1 monoclonal antibodies to the extracellular domain (ECD) of either human or murine DDR1. A 96-well MaxiSorb ELISA plates (Nunc) were coated with 2 μg/mL of one of three purified recombinant tagged proteins: human ECD-DDR1-His protein, human ECD-DDR1-Fc, or mouse ECD-DDR1-Fc overnight at 4° C. The next day, the plates were blocked with 5% bovine serum albumin (BSA, Jackson Immunoresearch) prior to the addition of serially diluted anti-DDR1 monoclonal antibodies. Antibodies were incubated for 1 hr at room temperature. The binding of antibody to the antigen was detected by incubating samples with anti-mouse IgG-HRP (horse radish peroxidase) secondary detection antibody (Jackson Immunoresearch) for 1 hr. After a washing step, 3,3′,5,5″-tetramethylbenzidine (TMB) reagent was added for HRP to produce a colorimetric signal. The reaction was stopped by addition of 1M hydrochloric acid after 2 minutes and measured for absorbance (optical density, OD) at 450λ on a Molecular Devices plate reader. The OD values were plotted against antibody concentration and fitted using a using 4-parameter logistic equation in SoftMax software (Molecular Devices). The apparent affinity constant (KD) was taken from the C-parameter of the equation (y=(A−D)/(1+(x/C)̂B)+D). The apparent affinity constants were summarized (in some cases shown as average values) in Table 10 below. Lower value indicates higher binding affinity of the antibody to the antigen.
row,binding result,Binder
1,no binding,B3
2,no binding,B4
3,no binding,B5
4,no binding,B6

# Target: DDR1 with a ProLink Tag (PK) in engineered U20S cells (DiscoveRx), Q08345
# Assay: cell-based or functional assay
row,"Mean EC50, DDR1 Tyr513 phosphorylation assay (U20S) [nM]",Binder
1,6.6,B1
2,7.72,B2
3,3,B6

# Target: T2, human DDR2 stably expressed on HEK293 …
# Assay: flow cytometry, HEK293/hDDR2
# Method: Additional monoclonal antibodies were obtained from individual hybridomas in Example 1 and were characterized for their properties.
# Cells were cultured in DMEM with 10% FBS and 0.8 mg/mL hygromycin. When cells reached 60-80% confluence, they were centrifuged at 1,200 rpm for 5 minutes, suspended in FACS buffer (1×PBS, 1% BSA), and aliquoted into a 96-well plate at 1×10⁶ cells per well. The anti-DDR1 monoclonal antibodies or appropriate isotype controls at 2 μg per 1×10⁶ cells were added and incubated at 4° C. for 1 hr. The cells were washed twice with FACS buffer then stained with the anti-IgG-PE secondary antibody at 10 μL per well at 4° C. for 1 hr. The cells were washed again and measured for the MFI values or signals using flow cytometry (LSR Fortessa instrument, BD Biosciences). Background MFI signals from vector-only cells (i.e. no DDR1 or DDR2 expression) was subtracted from those of the cells treated with antibodies. Higher MFI values or signals indicated increased binding or specificity of the anti-DDR1 antibodies to the DDR1 on the cell surface.
row,MFI [MFI],Binder
1,244,B1
2,265,B2
3,308,B3
4,410,B4
5,306,B5
6,176,B6

# Target: T3, DDR1ECD-Fc (R&D Systems, Catalog #2396-DR) (human, UniProt Q08345 21-416)
# T3 construct: range 21-416; construct as described for the bought immunogen; also called human ECD-DDR1-Fc; Fc-ECD-DR1; not shown: human IgG1, Pro100-Lys330
# Assay: ELISA, coated antigen, apparent KD
# Method: as §1
row,Kd [nM],Binder
1,0.324,B1
2,0.596,B2
3,0.254,B3
4,0.209,B4
5,0.31,B5
6,0.216,B6

# Target: T4, human ECD-DDR1-His protein (human, UniProt Q08345 21-416)
# T4 construct: also called huDDR1-ECD-His; DDR1ECD-6Xhis; not shown: His tag
# Assay: ELISA, coated antigen, apparent KD
# Method: as §1
row,Kd [nM],Binder
1,0.372,B1
2,0.5,B2
3,0.115,B3
4,0.2,B4
5,0.154,B5
6,0.153,B6

# Reference: patent publication US20140086913A1 (Gilead, published 2014)
